{"source": "patent US20170281764A1", "about": "(JN BIOSCIENCES, published 2017)", "binders": {"B1": {"name": "HuTIG1-IgG1.AA (humanized IgG1/kappa form of TIG1, L234A/L235A) (antibody)", "heavy": "not shown", "light": "DIQMTQSPSSLSASVGDRVTITCRASKSISKYLAWYQQKPGKAPKLLIYSGSTLQSGVPSRFSGSGSGTDFTLTISSLQPEDFATYYCQQHNEYPWTFGGGTKVEIKRTVAAPSVFIFPPSDEQLKSGTASVVCLLNNFYPREAKVQWKVDNALQSGNSQESVTEQDSKDSTYSLSSTLTLSKADYEKHKVYACEVTHQGLSSPVTKSFNRGEC", "notes": "Mature full chains; also called humanized TIG1"}}, "key": {"[1]": {"target": "T1, HA-tagged human TIGIT with mutation N49A, on CHO-K1 cells (human, UniProt Q495A1 22-244)", "T1 sequence": "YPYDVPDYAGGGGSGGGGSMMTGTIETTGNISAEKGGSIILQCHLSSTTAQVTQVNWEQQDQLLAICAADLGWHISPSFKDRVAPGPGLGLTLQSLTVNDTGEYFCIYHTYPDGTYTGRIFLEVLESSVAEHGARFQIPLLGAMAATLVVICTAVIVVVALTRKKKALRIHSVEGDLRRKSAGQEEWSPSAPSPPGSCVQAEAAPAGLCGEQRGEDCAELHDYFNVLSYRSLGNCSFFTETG", "assay": "flow cytometry on CHO-K1 cells transiently expressing HA-tagged TIGIT mutant", "description": "(§1) For flow cytometry analysis of the anti-hTIGIT antibody binding epitope, HA-tagged human TIGIT proteins with or without single amino acid mutation were transiently transfected into CHO-K1 cells. After 24 hr, transfected cells were suspended in HBSS buffer (Thermo Fisher Scientific, Cat#14175095), and incubated with HuTIG1-IgG1.AA antibody at varying concentrations in 50 μL volume. After 1 hr incubation at 4° C., cells were washed and a second incubation with 50 μL Alexa488 conjugated anti-human IgG(H+L) secondary antibody (Thermo Fisher Scientific, Cat#A-11013) was performed to detect cells bound by antibody. Cells were incubated with an anti-HA antibody (Sigma, Cat# H7411) as a positive control, and non-transfected CHO-K1 cells were used as a negative control. The cells were analyzed on an Attune NxT Cytometer (Thermo Fisher Scientific) and the data were processed using FlowJo software. For each mutant, the saturating antibody binding MFI (mean fluorescence intensity) were normalized to 100% POC (percent of control), and no primary antibody binding control MFI were normalized to 0% POC. Data were then fit to a four parameter non-linear sigmoidal curve using GraphPad Prism 7 curve fitting using following formula: Y=Bottom+(Top−Bottom)/(1+10^{((Log EC}^₅₀^{-X)*HillSlope)}).\n(§2) All of these residues co-locate to one discrete region on the front ([…] structure of the TIGIT IgV extracellular domain (FIG. 28)."}, "[2]": {"target": "T2, HA-tagged human TIGIT with mutation D51A, on CHO-K1 cells (human, UniProt Q495A1 22-244)", "T2 construct": "Built as for m17", "T2 sequence": "T1 sequence with A68N, D70A", "assay": "flow cytometry on CHO-K1 cells transiently expressing HA-tagged TIGIT mutant", "description": "as §1, §2"}, "[3]": {"target": "T3, HA-tagged human TIGIT with mutation H90A, on CHO-K1 cells (human, UniProt Q495A1 22-244)", "T3 construct": "Built as for m17", "T3 sequence": "T1 sequence with A68N, H109A", "assay": "flow cytometry on CHO-K1 cells transiently expressing HA-tagged TIGIT mutant", "description": "as §1, §2"}, "[4]": {"target": "T4, HA-tagged human TIGIT with mutation N37A, on CHO-K1 cells (human, UniProt Q495A1 22-244)", "T4 construct": "Built as for m17", "T4 sequence": "T1 sequence with N56A, A68N", "assay": "flow cytometry on CHO-K1 cells transiently expressing HA-tagged TIGIT mutant", "description": "as §1, §2"}, "[5]": {"target": "T5, HA-tagged human TIGIT with mutation Q35A, on CHO-K1 cells (human, UniProt Q495A1 22-244)", "T5 construct": "Built as for m17", "T5 sequence": "T1 sequence with Q54A, A68N", "assay": "flow cytometry on CHO-K1 cells transiently expressing HA-tagged TIGIT mutant", "description": "as §1, §2"}, "[6]": {"target": "T1, HA-tagged human TIGIT with mutation …", "assay": "flow cytometry on CHO-K1 cells transiently expressing HA-tagged TIGIT mutant; N49A mutant", "description": "as §1, with “EC}^₅₀^{-X)*HillSlope)}). […]” for “EC}^₅₀^{-X)*HillSlope)}).”"}, "[7]": {"target": "T5, HA-tagged human TIGIT with mutation …", "assay": "flow cytometry on CHO-K1 cells transiently expressing HA-tagged TIGIT mutant; Q35A mutant", "description": "as §1, with “EC}^₅₀^{-X)*HillSlope)}). […]” for “EC}^₅₀^{-X)*HillSlope)}).”"}}, "note": "Changes are numbered by the printed parent chain. In names and notes the source's numbering stands."}
{"binder": "B1", "values": [{"measurement": "fold decrease in binding affinity against wild type human TIGIT", "setting": "[1]", "result": "> 10", "unit": "fold"}, {"measurement": "fold decrease in binding affinity against wild type human TIGIT", "setting": "[2]", "result": "> 10", "unit": "fold"}, {"measurement": "fold decrease in binding affinity against wild type human TIGIT", "setting": "[3]", "result": "> 10", "unit": "fold"}, {"measurement": "fold decrease in binding affinity against wild type human TIGIT", "setting": "[4]", "result": "> 10", "unit": "fold"}, {"measurement": "fold decrease in binding affinity against wild type human TIGIT", "setting": "[5]", "result": "> 10", "unit": "fold"}, {"measurement": "EC50", "setting": "[6]", "result": 17.7, "unit": "nM"}, {"measurement": "EC50", "setting": "[7]", "result": 176, "unit": "nM"}]}
